Reference: US20100317723, “Nucleolin Specific Aptamer and Use thereof” (POSTECH ACADEMY-INDUSTRY FOUDATION, published 2010)

What was measured:
[1] = target: T1, Nucleolin (cell-surface, C6 rat glioma cells) (UniProt P13383 P13383:1-713); assay: C6 cell fluorescence, about 1.5 fold or more, 20 nM; confirmed by confocal; details: tags: endogenous on C6 cells (ATCC); label: 5'-Cy3; G4
Description: (§1) To determine the targeting efficiency of the cancers, fluorescence intensities of forty-seven Cy3-labeled BzdU-containing GRO29A and eighteen Cy3-labeled NapdU-containing GRO29A compounds were quantified to evaluate their targeting efficiency at C6 cells by the Varioskan Flash spectral scanning multimode reader (Thermo Fisher Scientific Inc. Waltham, Mass.; excitation: 535 nm, scanning wavelength: 570 nm with a band width: 12 nm). C6 cells were seeded 1×10⁵ cell density onto Magne to FACTION 24 plate (Chemicell, GmbH, Germany) and caring at a 5% CO₂-humidified chamber. After 24 hours of grown, these seeded cells were incubated in DMEM (Dubelocos' modified essential media) with 20 nM of Cy3-labeled GRO29A or AS1411, or 20 nM of each of the Cy3-labeled modified dU-containing GRO29A or AS1411 compounds at for 30 minute at 4° C. for decreasing non-specific binding during 30 min and rinsed by PBS (1×), then replaced to 200 μl Tris buffer, and then treated with each of 47 different compounds (20 pmole). […] These cells were collected by PBS (1×) (120 μl) and transferred into 96-well plate (Chemicell, GmbH, Germany) for measurement of fluorescence intensity (100 μl). […]

[2] = target: T1, Nucleolin (cell-surface, C6 rat glioma …); assay: C6 cell fluorescence, about 1.5 fold or more, 20 nM; details: tags: endogenous on C6 cells (ATCC); label: 5'-Cy3; G4
Description: To determine the targeting efficiency of the cancers, fluorescence intensities of forty-seven Cy3-labeled BzdU-containing GRO29A and eighteen Cy3-labeled NapdU-containing GRO29A compounds were quantified to evaluate their targeting efficiency at C6 cells by the Varioskan Flash spectral scanning multimode reader (Thermo Fisher Scientific Inc. Waltham, Mass.; excitation: 535 nm, scanning wavelength: 570 nm with a band width: 12 nm). C6 cells were seeded 1×10⁵ cell density onto Magne to FACTION 24 plate (Chemicell, GmbH, Germany) and caring at a 5% CO₂-humidified chamber. After 24 hours of grown, these seeded cells were incubated in DMEM (Dubelocos' modified essential media) with 20 nM of Cy3-labeled GRO29A or AS1411, or 20 nM of each of the Cy3-labeled modified dU-containing GRO29A or AS1411 compounds at for 30 minute at 4° C. for decreasing non-specific binding during 30 min and rinsed by PBS (1×), then replaced to 200 μl Tris buffer, and then treated with each of 47 different compounds (20 pmole). Then, seeded cells was washed with PBS (phosphate buffered saline) two times each for 10 min at RT using shaking incubation (30 rpm) to remove the unbound Cy3-labeled modified dU-containing GRO29A or AS1411 compounds, and subjected to trypsinization to detach from the plate surface. These cells were collected by PBS (1×) (120 μl) and transferred into 96-well plate (Chemicell, GmbH, Germany) for measurement of fluorescence intensity (100 μl).

[3] = target: T2, Nucleolin (cell-surface, human cancer cell lines) (UniProt P19338 P19338:2-710); assay: HeLa cell fluorescence; reference; details: tags: endogenous on HeLa, MDA-MB231, HepG2, AGS, OVCAR-3, U87MG cells (ATCC); label: 5'-Cy3; G4
T2 sequence (P19338 2-710, one chain of several): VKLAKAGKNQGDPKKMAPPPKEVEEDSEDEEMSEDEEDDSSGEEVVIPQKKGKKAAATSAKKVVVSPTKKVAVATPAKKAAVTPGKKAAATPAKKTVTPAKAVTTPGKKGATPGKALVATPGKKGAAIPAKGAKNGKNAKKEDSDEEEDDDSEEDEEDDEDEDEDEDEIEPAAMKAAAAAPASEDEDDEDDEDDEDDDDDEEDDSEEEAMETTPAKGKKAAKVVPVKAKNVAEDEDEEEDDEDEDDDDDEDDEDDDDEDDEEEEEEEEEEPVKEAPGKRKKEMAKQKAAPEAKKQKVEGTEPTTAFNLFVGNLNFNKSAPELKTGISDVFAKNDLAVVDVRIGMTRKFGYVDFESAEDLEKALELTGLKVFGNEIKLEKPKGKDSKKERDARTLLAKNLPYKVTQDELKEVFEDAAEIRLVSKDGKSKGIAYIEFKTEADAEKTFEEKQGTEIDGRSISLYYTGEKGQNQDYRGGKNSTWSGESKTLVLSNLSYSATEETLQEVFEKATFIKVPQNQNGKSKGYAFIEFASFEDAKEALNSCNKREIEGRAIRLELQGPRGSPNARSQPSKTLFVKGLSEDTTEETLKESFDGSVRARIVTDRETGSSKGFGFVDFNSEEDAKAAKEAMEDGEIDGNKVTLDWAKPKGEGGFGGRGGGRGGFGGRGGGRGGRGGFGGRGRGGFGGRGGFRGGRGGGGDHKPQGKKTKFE
Description: (§2) To determine the targeting efficiency of the cancers, fluorescence intensities of forty-seven Cy3-labeled BzdU-containing GRO29A and eighteen Cy3-labeled NapdU-containing GRO29A compounds were quantified to evaluate their targeting efficiency at C6 cells by the Varioskan Flash spectral scanning multimode reader (Thermo Fisher Scientific Inc. Waltham, Mass.; excitation: 535 nm, scanning wavelength: 570 nm with a band width: 12 nm). C6 cells were seeded 1×10⁵ cell density onto Magne to FACTION 24 plate (Chemicell, GmbH, Germany) and caring at a 5% CO₂-humidified chamber. […] These cells were collected by PBS (1×) (120 μl) and transferred into 96-well plate (Chemicell, GmbH, Germany) for measurement of fluorescence intensity (100 μl).
(§3) To test functional activity of BzdU-containing GRO29A, the compounds numbers 1642-39, 1642-51 and 1642-19, in other cancer cells, the inventors first extended cancer targeting assay by selecting another cancer cells, HeLa (human cervix cancer cell line, ATCC), and a normal healthy cell line, CHO (chinese hamster ovary cell line, ATCC). The measurement of fluorescence intensity was performed as described above for C6 cells.

[4] = target: T1, Nucleolin (cell-surface, C6 rat glioma …); assay: cell fluorescence and confocal on C6 cells, 20 nM, 4 C; reference; details: tags: endogenous on C6 cells (ATCC); label: 5'-Cy3; G4
Description: as §1

[5] = target: T2, Nucleolin (cell-surface, human cancer …); assay: HeLa cell fluorescence; details: tags: endogenous on HeLa, MDA-MB231, HepG2, AGS, OVCAR-3, U87MG cells (ATCC); label: 5'-Cy3; G4
Description: as §2, §3

[6] = target: T1, Nucleolin (cell-surface, C6 rat glioma …); assay: C6 cell fluorescence, 20 nM; confirmed by confocal; details: tags: endogenous on C6 cells (ATCC); label: 5'-Cy3; G4
Description: as §1

T1 sequence (P13383 whole entry, one chain of several): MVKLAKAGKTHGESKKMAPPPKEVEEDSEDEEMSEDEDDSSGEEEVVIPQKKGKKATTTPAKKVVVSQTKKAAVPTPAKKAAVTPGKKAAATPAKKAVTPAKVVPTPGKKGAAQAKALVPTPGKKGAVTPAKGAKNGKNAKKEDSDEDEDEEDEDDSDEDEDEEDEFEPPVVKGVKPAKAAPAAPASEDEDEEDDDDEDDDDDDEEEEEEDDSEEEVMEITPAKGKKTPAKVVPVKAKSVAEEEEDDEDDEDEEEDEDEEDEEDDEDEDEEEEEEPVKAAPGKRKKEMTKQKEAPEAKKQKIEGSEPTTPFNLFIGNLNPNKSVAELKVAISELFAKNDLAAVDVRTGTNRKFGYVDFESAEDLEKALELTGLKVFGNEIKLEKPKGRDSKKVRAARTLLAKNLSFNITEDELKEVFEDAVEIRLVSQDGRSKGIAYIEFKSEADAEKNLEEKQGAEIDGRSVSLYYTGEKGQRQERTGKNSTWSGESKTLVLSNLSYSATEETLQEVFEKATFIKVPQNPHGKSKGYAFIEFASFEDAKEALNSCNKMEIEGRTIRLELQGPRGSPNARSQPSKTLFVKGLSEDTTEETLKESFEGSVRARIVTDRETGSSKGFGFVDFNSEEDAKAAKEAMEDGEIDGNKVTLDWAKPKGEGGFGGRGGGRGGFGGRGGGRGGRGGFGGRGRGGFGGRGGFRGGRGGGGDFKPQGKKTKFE

B1: 1642-39 (ssDNA)
DNA: TTTGGTGGTGGTGGTTGTGGTGGTGGTGG
modifications: BzdU at T15, T16
binding signal [1]: ≥ 1.5 fold vs GRO29A

B2: 1642-51 (ssDNA)
DNA: TTTGGTGGTGGTGGTTGTGGTGGTGGTGG
modifications: BzdU at T1, T3, T15, T16
binding signal [1]: ≥ 1.5 fold vs GRO29A

B3: 1642-49 (ssDNA)
DNA: TTTGGTGGTGGTGGTTGTGGTGGTGGTGG
modifications: BzdU at T2, T3, T15, T16
binding signal [2]: ≥ 1.5 fold vs GRO29A

B4: GRO29A (Cy3-1641-3) (ssDNA)
DNA: TTTGGTGGTGGTGGTTGTGGTGGTGGTGG
binding signal [3]: 1 fold
binding signal [4]: 1 fold

B5: 1642-30 (ssDNA)
DNA: TTTGGTGGTGGTGGTTGTGGTGGTGGTGG
modifications: BzdU at T9, T27
binding signal [2]: ≥ 1.5 fold vs GRO29A

B6: 1642-19 (ssDNA)
DNA: TTTGGTGGTGGTGGTTGTGGTGGTGGTGG
modifications: BzdU at T27
binding signal [5]: ~2.3 fold vs GRO29A
binding signal [6]: ~2.5 fold vs GRO29A

B7: 1642-13 (ssDNA)
DNA: TTTGGTGGTGGTGGTTGTGGTGGTGGTGG
modifications: BzdU at T12
binding signal [2]: ≥ 1.5 fold vs GRO29A

B8: 1642-11 (ssDNA)
DNA: TTTGGTGGTGGTGGTTGTGGTGGTGGTGG
modifications: BzdU at T6
binding signal [2]: ≥ 1.5 fold vs GRO29A
